The source of these data is US20060240474A1, “Peptides able to switch between two structural states and their use” (UNIVERSITY OF SUSSEX, priority 2002, published 2006).

A short description of data set [1]: Thermal unfolding followed by CD spectroscopy. Type of data set: physicochemical. To be noted: for thermal stability in words: comparator named in the value; for TM of the oxidised state: oxidised form; for TM of the oxidised state / TM of the reduced, dimeric form: ±2 for all three values; for midpoint of thermal unfolding transition, TM: FIG. 3B, concentration not given; for thermal destabilisation compared with CSP-3o: oxidised forms. How it is done: (§1) Circular dichroism spectroscopy. CD measurements were made using a JASCO J-715 spectropolarimeter fitted with a Peltier temperature controller. Peptide solutions were prepared in 25 mM potassium phosphate buffer at pH 7 and were examined in 1 mm or 1 cm quartz cuvettes (with stirring). Spectra were recorded at 5° C. using 1 nm intervals, a 1 nm bandwidth and 4 sec response time. Thermal unfolding curves were recorded through 1° C. min^−1 ramps using a 2 nm bandwidth, averaging the signal for 16 s every 1° C. intervals. After baseline correction, ellipticities in mdeg were converted to molar ellipticities (deg cm^2 dmol-res-^−1) by normalising for the concentration of peptide bonds.

Data set [2] is described as follows: Circular dichroism spectroscopy (helicity). To be noted: for helicity compared with other designs (CD signal at 222 nm): pH 7, comparator named in the value; for helix content judged by CD spectroscopy: pH 7, 5° C., 100 μM peptide (b86 prints 100 mM). Type of data set: physicochemical. How it is done: as §1
Data set [3] concerns the molecule itself. Put plainly: sedimentation equilibrium AUC, monomer-dimer fit, pH 7, 5 C (homodimerisation). The method, then: Sedimentation equilibrium experiments were conducted at 5° C. in a Beckman-Optima XL-I analytical ultracentrifuge fitted with an An-60 Ti rotor. A […] peptide solution at […] in 25 mM K phosphate buffer pH 7 containing 0.1 M KCl was equilibrated for 48 h at speeds of 40 000, 47 500/50 000 and 55 000/60 000 rpm. Data were fitted simultaneously assuming either a single ideal species or a monomer-dimer equilibrium and fixed monomer molecular weight, using routines in the Beckman-Optima XL-A/XLI-I data analysis software (v4.0). The molecular weights (Table 2) and partial specific volumes (range 0.7417 to 0.7461) of the peptides were calculated from their amino-acid sequences, and the viscosity of the buffer at 5° C. was taken to be […].

Where a SMILES comes first, the peptide text is derived from it. Bridges are numbered along the chain shown (N, C = ends). Roman numbers before positions name the chains, in order. Where no end group is shown, it is not given here. The star is where a group is joined. Cam = NC(=O)C*

Regarding “CGGEIRALKYEIARLKQAAQAKKRALEQKIAALEGGC [CSP-7o] (disulfide 1-37)”, the “thermal stability in words” value in data set [1] is “affected less”.

For the molecule “CGGEIRALKYEIARLKQAAQAKIRALEQKIAALEGGC [CSP-6r]”, in data set [2], the “helicity compared with other designs (CD signal at 222 nm)” value (“helicity compared with other designs” for short) was “significantly increased over the other hendecad-containing designs CSP-2r and CSP-3r”. In data set [1] (10 μM peptide), this molecule displayed a TM of 61±2 °C. Also, the “thermal stability in words” value in data set [1] was “significantly increased over the other hendecad-containing designs CSP-2r and CSP-3r”.

Take “CGGKIRALEYKIARLEQAKQAKIRALEQKIAALEGGC [CSP-5r]”: in data set [1] (reduced forms), the “thermal stability lower than the parent (CSP-3r) by” value amounted to 12 °C.

Regarding `CC[C@H](C)[C@H](NC(=O)[C@H](CCCCN)NC(=O)[C@H](CCC(N)=O)NC(=O)[C@H](CCC(=O)O)NC(=O)[C@H](CC(C)C)NC(=O)[C@H](C)NC(=O)[C@H](CCCNC(=N)N)NC(=O)[C@@H](NC(=O)[C@H](CCCCN)NC(=O)[C@H](C)NC(=O)[C@H](CCC(N)=O)NC(=O)[C@H](CCCCN)NC(=O)[C@H](C)NC(=O)[C@H](CCC(N)=O)NC(=O)[C@H](CCCCN)NC(=O)[C@H](CC(C)C)NC(=O)[C@H](CCCNC(=N)N)NC(=O)[C@H](C)NC(=O)[C@@H](NC(=O)[C@H](CCC(=O)O)NC(=O)[C@H](Cc1ccc(O)cc1)NC(=O)[C@H](CCCCN)NC(=O)[C@H](CC(C)C)NC(=O)[C@H](C)NC(=O)[C@H](CCCNC(=N)N)NC(=O)[C@@H](NC(=O)[C@H](CCC(=O)O)NC(=O)CNC(=O)CNC(=O)[C@@H](N)CS)[C@@H](C)CC)[C@@H](C)CC)[C@@H](C)CC)C(=O)N[C@@H](C)C(=O)N[C@@H](C)C(=O)N[C@@H](CC(C)C)C(=O)N[C@@H](CCC(=O)O)C(=O)NCC(=O)NCC(=O)N[C@@H](CS)C(=O)O` [CSP-3] (H-CGGEIRALKYEIARLKQAKQAKIRALEQKIAALEGGC-OH; N-terminus and C-terminus assumed), in data set [1], the “TM of the oxidised state” value is 50 °C and the “TM of the reduced, dimeric form” value worked out at 40 °C.

As for “CGGEIRALKYEIARLKQAKQAEIRALKQEIAALKGGC [CSP-4r]”, the “thermal stability higher than CSP-3r by” value in data set [1] (reduced forms) is ~8 °C.

For “CGGEIRALKYEIARLKQ----KKRALEQKIAALEGGC [CSP-1r] (not fully specified (some residues); cysteine pairing not given here)”, the “helix content judged by CD spectroscopy” value in data set [2] is on record as 90%. Moreover, the “transition midpoint, TM” value was 50 °C in data set [1] (10 mM sample (so in the source)) and 62 °C in data set [1] (100 mM peptide (so in the source)).

On to “CGGEIRALKYEIARLKQAKQAKIRALEQKIAALEGGC [CSP-3r]”, for which, in data set [2], the “helicity compared with other designs” value is listed as “approximate three-fold improvement in helicity over CSP-2r”. For the same molecule, in data set [1], the “midpoint of thermal unfolding transition, TM” value amounted to 40±2 °C.

Consider “CGGEIRALKYEIARLKQGGGGKKRALEQKIAALEGGC [CSP-2r]”, for which, in data set [2], the “helix content judged by CD spectroscopy” value is recorded as ~20%. Besides, in data set [1], the “midpoint of thermal unfolding transition, TM” value is 22±2 °C.

“CGGEIRALKYEIARLKQAKQAEIRALKQEIAALKGGC [CSP-4o] (disulfide 1-37)”: in data set [2], the “helicity compared with other designs” value is “marginally less helical than the parent, CSP-3o”. Moreover, in data set [1], the “thermal destabilisation compared with CSP-3o” value is ~20 °C.

As for “CGGEIRALKYEIARLKQ----KKRALEQKIAALEGGC [CSP-1o] (disulfide I:1-II:16; not fully specified)”, the “helix content judged by CD spectroscopy” value in data set [2] worked out at 20%. Moreover, the “thermal stability in words” value in data set [1] was “changed little upon heating”.

“CGGKIRALEYKIARLEQAKQAKIRALEQKIAALEGGC [CSP-5o] (disulfide 1-37)”: the “helicity compared with other designs” value in data set [2] is reported as “marginally less helical than the parent, CSP-3o”. Besides, the “thermal destabilisation compared with CSP-3o” value in data set [1] is ~20 °C.

Consider “CGGEIRALKYEIARLKQGGGGKKRALEQKIAALEGGC [CSP-2o] (disulfide 1-37)”, for which, in data set [2], the “helix content judged by CD spectroscopy” value was ~40% and the “helicity compared with other designs” value was “approximately double the helical signal ([θ]222) of the parent peptide”. Moreover, the “midpoint of thermal unfolding transition, TM” value in data set [1] was determined as 40±2 °C.

Consider `CC[C@H](C)[C@H](NC(=O)[C@H](CCCCN)NC(=O)[C@H](CCC(N)=O)NC(=O)[C@H](CCC(=O)O)NC(=O)[C@H](CC(C)C)NC(=O)[C@H](C)NC(=O)[C@H](CCCNC(=N)N)NC(=O)[C@@H](NC(=O)[C@H](CCCCN)NC(=O)[C@H](C)NC(=O)[C@H](CCC(N)=O)NC(=O)[C@H](C)NC(=O)[C@H](C)NC(=O)[C@H](CCC(N)=O)NC(=O)[C@H](CCCCN)NC(=O)[C@H](CC(C)C)NC(=O)[C@H](CCCNC(=N)N)NC(=O)[C@H](C)NC(=O)[C@@H](NC(=O)[C@H](CCC(=O)O)NC(=O)[C@H](Cc1ccc(O)cc1)NC(=O)[C@H](CCCCN)NC(=O)[C@H](CC(C)C)NC(=O)[C@H](C)NC(=O)[C@H](CCCNC(=N)N)NC(=O)[C@@H](NC(=O)[C@H](CCC(=O)O)NC(=O)CNC(=O)CNC(=O)[C@@H](N)CS)[C@@H](C)CC)[C@@H](C)CC)[C@@H](C)CC)C(=O)N[C@@H](C)C(=O)N[C@@H](C)C(=O)N[C@@H](CC(C)C)C(=O)N[C@@H](CCC(=O)O)C(=O)NCC(=O)NCC(=O)N[C@@H](CS)C(=O)O` [CSP-6] (H-CGGEIRALKYEIARLKQAAQAKIRALEQKIAALEGGC-OH; N-terminus and C-terminus assumed), for which, in data set [1], the “TM of the oxidised state” value was 47 °C and the “TM of the reduced, dimeric form” value worked out at 75 °C.

Turning to “CGGEIRALKYEIARLKQAAQAKKRALEQKIAALEGGC [CSP-7r]”, the “helicity compared with other designs” value in data set [2] was “compromised both the helicity and the thermal stability”. Further, the “thermal stability in words” value in data set [1] is “compromised both the helicity and the thermal stability”.

In the case of `CC[C@H](C)[C@H](NC(=O)[C@H](CCCCN)NC(=O)[C@H](CCC(N)=O)NC(=O)[C@H](CCC(=O)O)NC(=O)[C@H](CC(C)C)NC(=O)[C@H](C)NC(=O)[C@H](CCCNC(=N)N)NC(=O)[C@H](CCCCN)NC(=O)[C@H](CCCCN)NC(=O)[C@H](C)NC(=O)[C@H](CCC(N)=O)NC(=O)[C@H](C)NC(=O)[C@H](C)NC(=O)[C@H](CCC(N)=O)NC(=O)[C@H](CCCCN)NC(=O)[C@H](CC(C)C)NC(=O)[C@H](CCCNC(=N)N)NC(=O)[C@H](C)NC(=O)[C@@H](NC(=O)[C@H](CCC(=O)O)NC(=O)[C@H](Cc1ccc(O)cc1)NC(=O)[C@H](CCCCN)NC(=O)[C@H](CC(C)C)NC(=O)[C@H](C)NC(=O)[C@H](CCCNC(=N)N)NC(=O)[C@@H](NC(=O)[C@H](CCC(=O)O)NC(=O)CNC(=O)CNC(=O)[C@@H](N)CS)[C@@H](C)CC)[C@@H](C)CC)C(=O)N[C@@H](C)C(=O)N[C@@H](C)C(=O)N[C@@H](CC(C)C)C(=O)N[C@@H](CCC(=O)O)C(=O)NCC(=O)NCC(=O)N[C@@H](CS)C(=O)O` [CSP-7] (H-CGGEIRALKYEIARLKQAAQAKKRALEQKIAALEGGC-OH; N-terminus and C-terminus assumed), in data set [1], the “TM of the oxidised state” value was 53±2 °C and the “TM of the reduced, dimeric form” value was 34±2 °C.

B1: CSP-7r (reduced and alkylated) (peptide)
peptide: C(Cam)GGEIRALKYEIARLKQAAQAKKRALEQKIAALEGGC(Cam)
notes: CSP-6 with the Ile at the a site after the hendecad unit replaced by Lys; also called design iteration 7, reduced & alkylated; CSP-8a (Maya's nomenclature)
Molecule B1 had a Kd in data set [3] of 506 µM.

B2: CSP-4r (reduced and alkylated) (peptide)
peptide: C(Cam)GGEIRALKYEIARLKQAKQAEIRALKQEIAALKGGC(Cam)
notes: Anagram mutant of CSP-3 with all g:e pairs Glu:Lys; also called design iteration 4, reduced & alkylated; CSP-5a (Maya's nomenclature)
Take B2: the affinity in data set [3], expressed as Kd, was 77 µM.

B3: CSP-5r (reduced and alkylated) (peptide)
peptide: C(Cam)GGKIRALEYKIARLEQAKQAKIRALEQKIAALEGGC(Cam)
notes: Anagram mutant of CSP-3 with all g:e pairs Lys:Glu; also called design iteration 5, reduced & alkylated; CSP-6a (Maya's nomenclature)
In the case of B3, the equilibrium dissociation constant (Kd) in data set [3] is 72 µM.

B4: CSP-3r (reduced and alkylated) (peptide)
peptide: C(Cam)GGEIRALKYEIARLKQAKQAKIRALEQKIAALEGGC(Cam)
notes: The entry is the monomer chain; the KD is for its monomer-dimer equilibrium; also called CSP-3a; design iteration 3, reduced & alkylated
In the case of B4, the dissociation constant (Kd) in data set [3] came out at 191 µM.

B5: CSP-6r (reduced and alkylated) (peptide)
peptide: C(Cam)GGEIRALKYEIARLKQAAQAKIRALEQKIAALEGGC(Cam)
notes: CSP-3 with the Lys at the h position replaced by Ala; also called design iteration 6, reduced & alkylated; CSP-7a (Maya's nomenclature)
The molecule B5 came in with a Kd in data set [3] of 34 µM.

B6: CSP-1r (Coiled-coil-Switch Peptide-1, reduced and alkylated) (peptide)
peptide: C(Cam)GGEIRALKYEIARLKQKKRALEQKIAALEGGC(Cam)
notes: Synthetic designed peptide; The entry is the monomer chain; the KD is for its monomer-dimer equilibrium (parallel coiled-coil homodimer); also called design iteration 1, reduced & alkylated; CSP-2a (Maya's nomenclature)
The molecule B6 had a Kd in data set [3] of 33 µM.
